Assay: yeast display, Sf9 membrane polyspecificity reagent, FACS + sequencing; frameworks hold sequencing errors
How it was run: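 After 36–48 hours of galactose induction, yeast (Saccharomyces cerevisiae BJ5465) displaying a synthetic nanobody library were stained at 4 °C for 1 hour with 10% biotinylated, detergent-solubilized Sf9 membrane reagent. Streptavidin microbeads enriched the stained cells before FACS sorting into low and high (top ~1%) gates on anti-HA and streptavidin fluorescence. Each clone's polyreactivity label reflects its gate of origin.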
In the case of “QVQLVESGGGLVQAGGSLRLSCAASGSIFDWYAMGWYRQAPGKEGELVAAISSGDSTYYADSVKGRFTISRDNAKNTVYLQMNSLKPEDTAVYYGAAVTKLSGIRYNYWGQGTQVTVSS”, the “polyreactivity (PSR sort gate)” value is reported as “low polyreactivity”. With “QVQLVESGGGLVQAGGSLRLSCAASGSTLYWYAMGWYRQAPGKERELVAVITSSGVSTYYADSVKGRFTISRDNAKNTVYLQMNSLKPEDTAVYYCNAKWYGWQRGTVKYDYWGQGTQVTVSS” the “polyreactivity (PSR sort gate)” value was “low polyreactivity”. With “QVQLVESGGGLVQAGGSLRLSCAASGRITFRNAMVWYRQAPGKERELVASITSGGSTYYADSVKGRFTISRDNAKNTVYLQMNSLKPEDTAVYYCAGEGTARTSPPMDYWGQGTQVTVSS” the “polyreactivity (PSR sort gate)” value was “high polyreactivity”. With “QVQLVESGGGLVQAGGSLRLSCAASGRTFGYNAMGWYRQAPGKERELVAAITYSGGRTSYADSVKGRFTISRDNAKNTVYLQMNSLKPEDTAFYYCAAQPRYYSGYNYWGQGTQVTVSS” the “polyreactivity (PSR sort gate)” value was “high polyreactivity”. With “QVQVVESGGGLVQAGGSLRLSCAASGRIFYQNAMGWYRPAPGKERELVADISSGGSTYYADSVKGRFTISRDNAKNTVYLQMNSLKPEDTAVYYCNTPSGPGTVGSYRRIWYGYWGQGTQVTVSS” the “polyreactivity (PSR sort gate)” value was “low polyreactivity”. With “QVQLVESGGGLVQAGGSLRLSCAASGSIFSYYAMGWYRQAPGKERELVATISSGGSTNYADSVKGRFTISRDNAKNTVYLQMNSLKPEDTAVYYCAATIGHNGFDYWGQGTQVTVSS” the “polyreactivity (PSR sort gate)” value was “low polyreactivity”. In the case of “QVQLVESGGGLVQAGGSLRLSCAASGRTFGVYAMGWYRQAPGKERELVAGIRWRGGSTYYADSVKGRFTISRDNAKNTVYLQMNSLKPEDTAVYYCAAKVYYLYDSIWAWVIIRYDYWGQGTQVTVSS”, the “polyreactivity (PSR sort gate)” value is reported as “low polyreactivity”. In the case of “QVQLVESGGGLVQAGGSLRLSCAPSGSTFYVNAMGWYRQAPGKEREFVAAITWNSGSTYYADSVKGRFTISRDNAKNTVYLQMNSLKPEDTAVYYCAADGYHYVTYLVSYGYWGQGTQVTVSS”, the “polyreactivity (PSR sort gate)” value is reported as “low polyreactivity”. In the case of “QVQLQESGGGLVQAGGSLCLSCAASGTIFFDGDMGWNRQAPGKEREFVAAINPGGSAYYADSVKGRLPLAAITHTVYMQMYSLKPEDTAVYYCEAILFDVYGYYYWGQGTNVTVSS”, the “polyreactivity (PSR sort gate)” value is reported as “low polyreactivity”. In the case of “QVQLVESGGGLVQAGGSLRLSCAASGSIFGSYAMGWYRQAPGKERELVAAISYSGGTTYYADSVKGRFTISRDNAKNTVYLQMNSLKPEDTAVYYCNAPVAYQREYDYWGLGTQVTVSS”, the “polyreactivity (PSR sort gate)” value is reported as “low polyreactivity”. With “QVQLVESGGGLVQAGGSLRLSCAASGYIFGYYVMGWYRQAPGKERELVAAITGRGGSTYYADSVKGRFTISRDNAKNTVSLQMNSLKPEDTAVYYCAADATTYPYDPWHLYEIWEYYYWGQGTQVTVSS” the “polyreactivity (PSR sort gate)” value was “low polyreactivity”. In the case of “QVQLVESGGGLVQAGGSLRLSCAASGRTFRYNAMGWYRQAPGKERELVATISSSGGSTSYADSVKGRFTISRDNAKNTVYLQMNSLKREDTAVYYCNKRRLVAPGNGMDSWGQGTQVTVSS”, the “polyreactivity (PSR sort gate)” value is reported as “low polyreactivity”. In the case of “QVQLVESGGGLVQAGGSLRLSSAASGSIFGSNAMGWYRQAPGKERELVATITTSGGITYYADSVKGRFTISRDTAKNTVYLQMNSLKPEDTAVYYCAAAEGGGLVTYDYWGQGTQVTVSS”, the “polyreactivity (PSR sort gate)” value is reported as “low polyreactivity”. With “QVQLVESGGGLVHAGGSLRLICAGSGFTFRGYAMGWYRQAPGKEMELVADITSGGSTYYADSVKGRFTISRDNAKNTVYLQMNSLKPEDTAVYYCAPRQRSRSRYDYWGQGTQVTVSS” the “polyreactivity (PSR sort gate)” value was “high polyreactivity”. For “QFQLVESGGGLVQAGGSLRLSCAASGSTFSNYAMGWYRQAPGKERELVAAISSRGGSTYYADSVKGRFTISRDHAKNTVNLQMISLKPEDTAVYYCATYYVYKLYYWGQGTQVTVSS”, the “polyreactivity (PSR sort gate)” value was “high polyreactivity”. With “QEQLQESGGGLVQAGGSLRLSCAASGSISPYIYMGWYRQAPGKERAFVAGIGYGGTTNYADSEKGRYTISRDNAKNTEYLQMNSLKPDDTALYYCNAAYFAGPADDKFDYWGQGTQVTVSS” the “polyreactivity (PSR sort gate)” value was “low polyreactivity”. In the case of “QVQLVESGAGLVQAGGSLRLSCAASGIFVRYGMGWYRQAPGKERELVAAISYGGGSTYYADSVKGRFTISRDNAKITVYLQMNSLKPEDTAVYYCAASYANRYKYDEYDYWGQGTQVTVSS”, the “polyreactivity (PSR sort gate)” value is reported as “high polyreactivity”. For “QVQLVESGGGLVQAGGSLRLSCAASGRTFRYNAMGWYRQAPGKERELVASIRYSSASTYYADSVKGRFTISRDNAKNTVYLQMNSLKPEDTAVYYCAASWYPVIVGYDYWGQGTQVTVSS”, the “polyreactivity (PSR sort gate)” value was “high polyreactivity”. For “QVQLVESGGGLVQAGGSLRLSCAASGSTFYTNAMGWSRQAPGKQREFVAALSGRGSNTYYADSVKGRFTISRYNAKNTVYLQMNSLKPEDTAVYYCAARRLAGFGYWGQGTQVTVSS”, the “polyreactivity (PSR sort gate)” value was “high polyreactivity”. With “QVQLVDSGGGLVQEGGSLRLSCAASGSIFSTYARGWYRQAPGKEWEVVAAITRGGRTTYADSVKGRFTISRDNAKNTVYLQMNSLKPEDTAVYYCNAVGVYYWWYRLYDYWGQGTQVTLSS” the “polyreactivity (PSR sort gate)” value was “high polyreactivity”. In the case of “QVQLQESGGGLVQAGGTLRLSCAASGSFSADEDMGWYRQSQGKEREFVAGISVGGNTNYADSVKGRFTISRENAKKTVYLKINCLKPEDTAVYYCRVRLRTSYLLDYWGQGTQVTVSS”, the “polyreactivity (PSR sort gate)” value is reported as “high polyreactivity”. For “QVQLVESGGGLVQAGGSLRLSCAASGGIFDGYAMGWYRQAPGKERELVAAINYSVDRTYYADSVKGRFTISRDNAKNTVYLQMNSLKPVDTAVYYCATVPRYVRFGYGYWGQGTQVTVSS”, the “polyreactivity (PSR sort gate)” value was “high polyreactivity”. In the case of “QVQLVESGGGVVQAGGSLRLSCAASGSIFLRYAMGWYREAPGKERELVAAITSSGGSTYYADSVKGRFTISRDNAKNTVYLQMNSLKPQDNAVYYCNARAYTRYSRLDYWGQGTQVSVSS”, the “polyreactivity (PSR sort gate)” value is reported as “high polyreactivity”. With “QVQLVESGGGLVQAGGSLRLSCAASGRIFITNAMGWYRQAPGKERELVAVISYIGGRTYYADSVKGRFTISRDNAKNTVYLQMNSLKPEATAVYYCAARRSRPTYYSTGVNYWGQGTQVTVSS” the “polyreactivity (PSR sort gate)” value was “high polyreactivity”. For “QVQLVESGGGLVQAGGSLRLSSAASGRIFQGNSMGWYRQAPGKERELVAAITTSGGSTYYADSVKGRFTISRDNAKNTVYLQMNSLKPEDTAVYYCNVDPRKRSYDYWGQGPQVTVSS”, the “polyreactivity (PSR sort gate)” value was “high polyreactivity”. For “QVQLVESGGGLVQAGGSLRLSCAASGFTIYIYVMGWYRQAPGKETELVADITWSGGRTYYADSVKGRFTISRDNAKNTVYLQMNSLKPEDTAVYYCAASYPGLSYHKYEYWGQGTQVTVSS”, the “polyreactivity (PSR sort gate)” value was “high polyreactivity”. For “QVQLVESGGGLVQAGGRLRLICAASGSIFVSYALGWYRQAPGKERELVAAISTTGGRTRYADSVKGRFTISRDNAQNTVYLQMNSLKPEDTAVYYCAAVGARKMYYWGQGTQVTVSS”, the “polyreactivity (PSR sort gate)” value was “high polyreactivity”. In the case of “QVQLVESGGGLVQAGGSLRLSCAASGRIFARYVMGWYRQAPGKERELVAAISRRAGNTYYADSVKGRFTISRDNAKNTVYLQMNSLKPEDTAVYYCAVRYSYYALSTSRYGYWGQGTQVTVSS”, the “polyreactivity (PSR sort gate)” value is reported as “high polyreactivity”. For “QVQLVESGGGLVQAGGSLRLSCAASGGIFRSYAMGWYRQAPGKERELVAAINYSGGSTYYADSVKGRFTISRDNAKNSVYLQMNSLKPEDTAVYYCASDGYIRQYVTYYYWGQGTQVTVSS”, the “polyreactivity (PSR sort gate)” value was “low polyreactivity”. With “QVQLVESGVGLVQAGGSLRLSCASSGLIFYDNMGWYRQAPGKERELVAAISSSGGSTSYADSVKGRFTISRDNAKNTVYLQMNSLKPEDTAVYYCAADYRRYGSYDYWGQGTQVTVSS” the “polyreactivity (PSR sort gate)” value was “low polyreactivity”.
